According to patent US20230364254A1, “METHODS FOR TREATING CANCERS WITH ANTIBODY DRUG CONJUGATES (ADC) THAT BIND TO 191P4D12 PROTEINS” (priority 2020, published 2023):

System: patients treated with enfortumab vedotin
Assay: Phase 1 study ASG-22CE-13-2 of enfortumab vedotin: dermatologic and corneal adverse events
Type: in vivo, human
Source text: In the phase 1 study (Study ASG-22CE-13-2), rash and similar dermatologic AEs were common among patients treated with enfortumab vedotin, and were seen more frequently at the highest dose. Although the exact etiology of dermatologic toxicities associated with enfortumab vedotin is unclear at this time, due to the expression of Nectin-4 in the skin, rash may be an on-target toxicity. The most common dermatological AEs reported in ASG-22CE-13-2 were drug eruption, rash, skin exfoliation, skin pigmentation disorder, and rash maculo-papular. Most occurred during Cycle 1, and some were associated with pruritus. Almost all were mild, with the exception of two events of rash reported as Grade 3 in the 1 mg/kg dose group. […] Mild rash related to enfortumab vedotin should be treated using local supportive care as needed. Topical corticosteroids have been used along with antihistamines for pruritus as needed.
Slit lamp examinations will be conducted on at least the first 60 enrolled patients (from Cohorts 1 and/or 2) on Cycle 2 Day 22 (±1 week) and Cycle 6 Day 22 (±1 week). If corneal AEs are observed in <15% of the first 60 enrolled patients and if the events are generally low grade or asymptomatic, the IDMC may make a recommendation to cease Cycle 2 Day 22 and/or Cycle 6 Day 22 slit lamp exams for the remaining patients if warranted based on review of the cumulative ocular safety data. Based on the results from the Phase 1 study (Study ASG-22CE-13-2), as of the data cut-off date of 14 Nov. 2016, there were 3 patients who reported experiencing corneal adverse events out of 33 patients on […] of enfortumab vedotin. Assuming an event rate of 9% (3/33), with a sample size of 60, the probability of observing >3 events (5%) is 80.0% and the probability of observing <9 events (15%) is 91.2%. If the event rate is higher, the probability of observing <9 events is decreased. For example, if the event rate is 20%, the probability of observing <9 events is decreased to 12.7%. Based on the analysis described above and the review of cumulative ocular safety data, the IDMC recommended that the Cycle 2 Day 22 and Cycle 6 Day 22 slit lamp exams be discontinued in July 2018 and August 2019, respectively.

“enfortumab vedotin: Nectin-4 directed ADC: fully human anti-nectin-4 IgG1 kappa antibody (AGS-22C3) conjugated to MMAE via protease-cleavable maleimidocaproyl valine-citrulline linker” was tested, and the “dermatological AEs that required discontinuation of study drug” value was “None”, the “events of rash reported as Grade 3” value (1 mg/kg dose group) was “two” and the “corneal adverse event rate (3/33)” value (1.25 mg/kg) was 9%. For the same substance, the “events of Grade 1 papular rash that required a dose reduction” value (1.25 mg/kg) was “one” and the “patients who reported experiencing corneal adverse events” value (out of 33 patients on 1.25 mg/kg, data cut-off 14 Nov. 2016) was 3.
